Experimental data from patent US20250002588A1 (DIAGONAL THERAPEUTICS, published 2025).
Numbering of substitutions follows the chain as printed.

T1: human BMPRII protein (Sino Biological, #10551-H08H) (human, UniProt Q13873 27-150)
T1 sequence (looked up): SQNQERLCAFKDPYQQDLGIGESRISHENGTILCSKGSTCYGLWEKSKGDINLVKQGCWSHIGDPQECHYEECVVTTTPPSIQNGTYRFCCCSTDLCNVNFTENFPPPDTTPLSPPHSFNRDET

B1: DGL627 (bispecific antibody)
chain 1: not shown
chain 2: EVQLLESGGGLVQPGGSLRLSCAASGFTFSDYYMTWIRQAPGKGLEWVSSISGGSTYYADSRKGRFTISRDNSENTLYLQMNSLRAEDTAVYYCARDFGVAGWFGQYGMDVWGQGTLVTVSSGGGGSGGGGSGGGGSQSVLTQPPSASGTPGQRVTISCTGSSSNIGAGYDVHWYQQLPGTAPKLLIYRSNQRPSGVPDRFSGSKSGTSASLAISGLRSEDEADYYCSSYAGNYNLVFGGGTKLTVLDKTHTCPPCPAPEAAGAPSVFLFPPKPKDTLMISRTPEVTCVVVDVSHEDPEVKFNWYVDGVEVHNAKTKPREEQYNSTYRVVSVLTVLHQDWLNGKEYKCKVSNKALPAPIEKTISKAKGQPREPQVCTLPPSRDELTKNQVSLSCAVKGFYPSDIAVEWESNGQPENNYKTTPPVLDSDGSFFLVSKLTVDKSRWQQGNVFSCSVMHEALHNHYTQKSLSLSPGWSHPQFEK
B2: DGL625 (bispecific antibody)
chain 1: not shown
chain 2: B1 chain 2
B3: DGL629 (bispecific antibody)
chain 1: not shown
chain 2: B1 chain 2
B4: DGL635 (bispecific antibody)
chain 1: B1 chain 2
chain 2: not shown
B5: DGL628 (bispecific antibody)
chain 1: not shown
chain 2: B1 chain 2
B6: DGL626 (bispecific antibody)
chain 1: not shown
chain 2: B1 chain 2
B7: DGL633 (bispecific antibody)
chain 1: not shown
chain 2: EVQLLESGGGLVQPGGSLRLSCAASGFTFSNAWMNWVRQAPGKGLEWVSSISSSSSYIYYADSVKGRFTISRDNSKNTLYLQMNSLRAEDTAVYYCARAVAAGGMFWGLDQWGQGTLVTVTSSGGGGSGGGGSGGGGSQSVLTQPPSASGTPGQRVTISCSGSRSNIGSNSVHWYQQLPGTAPKLLIYGNSNRPSGVPDRFSGSKSGTSASLAISGLRSEDEADYYCQSYDSSLNDHVVFGGGTKLTVLDKTHTCPPCPAPEAAGAPSVFLFPPKPKDTLMISRTPEVTCVVVDVSHEDPEVKFNWYVDGVEVHNAKTKPREEQYNSTYRVVSVLTVLHQDWLNGKEYKCKVSNKALPAPIEKTISKAKGQPREPQVCTLPPSRDELTKNQVSLSCAVKGFYPSDIAVEWESNGQPENNYKTTPPVLDSDGSFFLVSKLTVDKSRWQQGNVFSCSVMHEALHNHYTQKSLSLSPGWSHPQFEK
B8: DGL641 (bispecific antibody)
chain 1: B7 chain 2
chain 2: not shown
B9: DGL645 (bispecific antibody)
chain 1: B7 chain 2 with A102G, G103T, G104S, F106W, W107Y
chain 2: not shown
B10: DGL644 (bispecific antibody)
chain 1: B7 chain 2 with A99S, V100N, A101G, A102S, M105S, F106T, W107S, G108P, Q111L
chain 2: not shown
B11: DGL647 (bispecific antibody)
chain 1: B7 chain 2 with M105F
chain 2: not shown
B12: DGL648 (bispecific antibody)
chain 1: B7 chain 2 with M105L
chain 2: not shown
B13: DGL649 (bispecific antibody)
chain 1: B7 chain 2 with N31L, S55T
chain 2: not shown
B14: DGL634 (bispecific antibody)
chain 1: not shown
chain 2: B7 chain 2

What follows are binders tested against human ALK1 protein (Sino Biological, #10066-H08H) (human, UniProt P37023 22-118) (assay: ELISA, coated human ALK1).
Description: (§1) These binders were then tested using an ELISA assay. High binding plates (Corning, 9018) were coated with either 2 μg/ml of human BMPRII protein (Sino Biological, #10551-H08H) or 2 μg/ml of human ALK1 protein (Sino Biological, #10066-H08H) overnight at 4C. The plates were then washed three times with wash buffer (R&D Systems, WA126). […] The plates were then washed three times with wash buffer and DGL antibodies or controls, which were diluted with PBS and 0.1% BSA. The antibodies were incubated for one hour at room temperature and then the plates were washed three times with wash buffer. The plates were then incubated with mouse anti-human IgG Fc secondary—HRP (diluted with PBS/0.1% BSA); 100 ul per well at 2 μg/ml and incubated at room temperature for one hour. The plate was washed three times in wash buffer and then 100 ul TMB (R&D Systems, DY9998B, substrate reagent pack). After the wells turn blue, 50 ul of stop solution (R&D Systems, DY994) was added to each well and the absorbance of the plate was read at 450 nm. results can be found in Table 8.

Chain of human ALK1 protein (Sino Biological, #10066-H08H) (P37023 22-118 limits assumed): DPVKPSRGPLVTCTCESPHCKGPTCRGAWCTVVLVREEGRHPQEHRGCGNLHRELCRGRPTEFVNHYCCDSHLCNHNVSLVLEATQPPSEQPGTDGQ

Abs450 1 nM | Abs450 10 nM | Abs450 100 nM | Binder
0.05 | 0.07 | 0.07 | B1
0.07 | 0.07 | 0.11 | B2
0.08 | 0.08 | 0.08 | B3
0.09 | 0.29 | 1.17 | B4
0.05 | 0.12 | 0.52 | B5
0.06 | 0.07 | 0.06 | B6
0.15 | 0.78 | 1.42 | B7
0.07 | 0.15 | 0.83 | B8
0.07 | 0.13 | 0.59 | B9
0.06 | 0.1 | 0.54 | B10
0.07 | 0.16 | 0.84 | B11
0.08 | 0.17 | 0.8 | B12
0.07 | 0.18 | 0.81 | B13

The binders below were run against ALK-1/BMPR-2 receptor pair of the PathHunter U2Os dimerization cells (DiscoverX 93-0962C3) (UniProt P37023 22-503; Q13873 27-1038) (assay: cell-based or functional assay).
Chain of ALK-1/BMPR-2 receptor pair of the PathHunter U2Os dimerization cells (DiscoverX 93-0962C3) (P37023 22-503, one chain of several): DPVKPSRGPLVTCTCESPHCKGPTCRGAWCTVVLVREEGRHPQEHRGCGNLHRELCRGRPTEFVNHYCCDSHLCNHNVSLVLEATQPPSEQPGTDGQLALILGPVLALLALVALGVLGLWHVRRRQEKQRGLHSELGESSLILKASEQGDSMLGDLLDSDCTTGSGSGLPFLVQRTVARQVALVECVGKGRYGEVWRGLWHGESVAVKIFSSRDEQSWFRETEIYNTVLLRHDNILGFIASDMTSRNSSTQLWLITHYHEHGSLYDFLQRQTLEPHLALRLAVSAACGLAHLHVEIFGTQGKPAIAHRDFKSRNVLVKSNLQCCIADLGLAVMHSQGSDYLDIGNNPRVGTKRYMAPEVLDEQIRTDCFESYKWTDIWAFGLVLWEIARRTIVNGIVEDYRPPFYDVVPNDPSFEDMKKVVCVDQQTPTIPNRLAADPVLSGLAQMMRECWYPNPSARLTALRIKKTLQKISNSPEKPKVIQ

% Emax BMP9 | Emax (RLU) | Binder
14% | 502000 RLU | B1
17% | 615000 RLU | B2
12% | 424000 RLU | B3
141% | 2.61e+06 RLU | B4
24% | 884000 RLU | B5
7% | 258000 RLU | B6
32% | 586000 RLU | B7
76% | 1.41e+06 RLU | B8
19% | 353000 RLU | B9
8% | 153000 RLU | B10
79% | 1.46e+06 RLU | B11
78% | 1.45e+06 RLU | B12
16% | 288000 RLU | B14
35% | 648000 RLU | B13

What follows are binders tested against T1, human BMPRII protein (Sino Biological, …) (assay: ELISA, coated human BMPRII).
Description: as §1

Abs450 1 nM | Abs450 10 nM | Abs450 100 nM | Binder
0.15 | 0.22 | 0.66 | B1
0.17 | 0.35 | 1.21 | B2
0.18 | 0.29 | 0.9 | B3
0.15 | 0.33 | 1.17 | B4
0.17 | 0.27 | 0.8 | B5
0.17 | 0.25 | 0.71 | B6
0.12 | 0.14 | 0.37 | B7
0.33 | 0.43 | 0.9 | B8
0.23 | 0.21 | 0.16 | B9
0.23 | 0.2 | 0.17 | B10
0.25 | 0.51 | 1.9 | B11
0.24 | 0.33 | 0.77 | B12
0.12 | 0.19 | 0.4 | B14
0.3 | 0.32 | 0.76 | B13
